T1: RNA polymerase III subunit C160 (S. cerevisiae, UniProt P04051 1-1460)
T1 sequence: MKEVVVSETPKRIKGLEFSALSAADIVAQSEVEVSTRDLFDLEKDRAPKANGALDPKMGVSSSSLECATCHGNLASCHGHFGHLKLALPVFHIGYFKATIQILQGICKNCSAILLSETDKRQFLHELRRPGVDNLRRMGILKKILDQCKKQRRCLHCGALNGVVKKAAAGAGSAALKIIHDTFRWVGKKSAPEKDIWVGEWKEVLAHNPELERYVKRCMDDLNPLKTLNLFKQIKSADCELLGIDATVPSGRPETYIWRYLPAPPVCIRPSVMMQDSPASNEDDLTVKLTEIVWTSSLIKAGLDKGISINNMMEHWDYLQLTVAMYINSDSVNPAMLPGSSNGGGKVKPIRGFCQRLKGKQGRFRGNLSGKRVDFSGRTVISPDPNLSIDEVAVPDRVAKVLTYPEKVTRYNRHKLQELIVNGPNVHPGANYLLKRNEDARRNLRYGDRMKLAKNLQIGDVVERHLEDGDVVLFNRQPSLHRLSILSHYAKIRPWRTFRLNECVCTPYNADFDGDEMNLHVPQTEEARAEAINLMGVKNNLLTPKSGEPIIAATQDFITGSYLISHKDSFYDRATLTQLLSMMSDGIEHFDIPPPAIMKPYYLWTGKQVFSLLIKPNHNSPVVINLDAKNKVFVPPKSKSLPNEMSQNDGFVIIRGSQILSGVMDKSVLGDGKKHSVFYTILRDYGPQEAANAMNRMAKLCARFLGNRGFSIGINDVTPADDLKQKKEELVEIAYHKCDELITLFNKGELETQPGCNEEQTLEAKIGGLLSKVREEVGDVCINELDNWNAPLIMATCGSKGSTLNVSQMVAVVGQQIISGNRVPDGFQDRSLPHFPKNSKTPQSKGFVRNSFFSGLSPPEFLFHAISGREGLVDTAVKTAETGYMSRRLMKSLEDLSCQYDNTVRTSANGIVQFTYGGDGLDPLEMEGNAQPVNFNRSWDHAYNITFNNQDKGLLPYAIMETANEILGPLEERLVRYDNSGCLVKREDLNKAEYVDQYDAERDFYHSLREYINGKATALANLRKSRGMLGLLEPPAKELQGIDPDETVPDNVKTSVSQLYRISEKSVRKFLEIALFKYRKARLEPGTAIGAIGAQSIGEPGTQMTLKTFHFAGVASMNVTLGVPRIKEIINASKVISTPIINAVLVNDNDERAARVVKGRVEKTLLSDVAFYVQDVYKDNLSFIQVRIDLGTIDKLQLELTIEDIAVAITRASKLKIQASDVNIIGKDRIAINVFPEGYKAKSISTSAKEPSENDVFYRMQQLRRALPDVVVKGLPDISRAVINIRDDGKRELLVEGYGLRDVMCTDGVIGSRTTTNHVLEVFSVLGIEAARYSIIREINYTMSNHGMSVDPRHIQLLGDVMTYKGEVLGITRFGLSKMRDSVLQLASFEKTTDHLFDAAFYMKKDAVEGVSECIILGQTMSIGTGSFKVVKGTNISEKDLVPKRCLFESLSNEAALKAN

T2: RNA polymerase III subunit C128 (S. cerevisiae, UniProt P22276 1-1149)
T2 sequence: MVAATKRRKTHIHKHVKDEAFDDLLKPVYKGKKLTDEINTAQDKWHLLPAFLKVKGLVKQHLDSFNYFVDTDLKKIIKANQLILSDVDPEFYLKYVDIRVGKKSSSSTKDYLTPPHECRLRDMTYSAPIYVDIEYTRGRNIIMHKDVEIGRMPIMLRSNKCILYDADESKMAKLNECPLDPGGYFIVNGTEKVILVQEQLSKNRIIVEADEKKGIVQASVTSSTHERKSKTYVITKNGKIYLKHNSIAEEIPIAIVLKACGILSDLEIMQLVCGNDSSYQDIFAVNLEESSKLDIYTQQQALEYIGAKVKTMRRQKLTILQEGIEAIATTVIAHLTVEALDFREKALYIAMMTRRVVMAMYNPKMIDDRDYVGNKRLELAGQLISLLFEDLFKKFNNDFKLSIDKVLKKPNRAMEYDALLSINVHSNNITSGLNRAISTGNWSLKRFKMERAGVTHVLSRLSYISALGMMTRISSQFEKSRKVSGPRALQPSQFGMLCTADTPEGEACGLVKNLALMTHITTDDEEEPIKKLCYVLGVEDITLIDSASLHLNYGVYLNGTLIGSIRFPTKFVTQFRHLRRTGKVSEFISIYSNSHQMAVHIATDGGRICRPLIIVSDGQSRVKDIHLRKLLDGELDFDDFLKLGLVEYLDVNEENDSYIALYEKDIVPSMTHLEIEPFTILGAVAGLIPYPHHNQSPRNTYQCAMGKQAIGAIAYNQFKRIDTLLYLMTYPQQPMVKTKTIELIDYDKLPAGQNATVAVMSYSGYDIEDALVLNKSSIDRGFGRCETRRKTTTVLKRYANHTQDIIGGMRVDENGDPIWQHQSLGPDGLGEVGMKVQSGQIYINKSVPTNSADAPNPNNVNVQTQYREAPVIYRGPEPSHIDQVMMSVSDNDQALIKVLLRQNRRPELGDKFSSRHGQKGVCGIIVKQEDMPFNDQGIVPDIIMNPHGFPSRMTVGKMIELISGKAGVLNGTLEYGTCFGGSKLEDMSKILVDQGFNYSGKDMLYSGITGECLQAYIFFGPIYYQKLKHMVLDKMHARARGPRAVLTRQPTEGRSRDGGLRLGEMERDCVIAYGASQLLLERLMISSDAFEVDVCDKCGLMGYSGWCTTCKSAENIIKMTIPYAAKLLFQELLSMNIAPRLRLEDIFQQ

T3: RNA polymerase III stalk subunit C25 (S. cerevisiae, UniProt P35718 1-212)
T3 sequence: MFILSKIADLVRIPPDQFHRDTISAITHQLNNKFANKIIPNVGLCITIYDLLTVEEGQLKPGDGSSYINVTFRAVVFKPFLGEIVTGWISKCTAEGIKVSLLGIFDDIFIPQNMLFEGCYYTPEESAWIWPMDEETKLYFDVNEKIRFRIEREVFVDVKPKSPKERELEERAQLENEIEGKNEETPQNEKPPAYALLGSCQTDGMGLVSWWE

T4: RNA polymerase III subunit C53 (S. cerevisiae, UniProt P25441 1-422)
T4 sequence: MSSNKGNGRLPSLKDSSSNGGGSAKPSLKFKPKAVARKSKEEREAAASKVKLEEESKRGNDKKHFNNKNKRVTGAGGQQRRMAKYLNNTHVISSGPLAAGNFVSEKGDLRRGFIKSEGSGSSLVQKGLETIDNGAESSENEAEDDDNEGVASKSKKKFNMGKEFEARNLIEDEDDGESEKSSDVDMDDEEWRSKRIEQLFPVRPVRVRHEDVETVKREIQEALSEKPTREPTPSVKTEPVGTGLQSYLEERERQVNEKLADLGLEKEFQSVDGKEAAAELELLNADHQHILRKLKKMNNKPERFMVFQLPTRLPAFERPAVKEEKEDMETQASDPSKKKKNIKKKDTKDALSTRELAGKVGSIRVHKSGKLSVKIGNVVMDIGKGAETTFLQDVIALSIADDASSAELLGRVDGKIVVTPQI

B1: RNA polymerase III subunit C11 (natural protein, S. cerevisiae)
chain: MLSFCPSCNNMLLITSGDSGVYTLACRSCPYEFPIEGIEIYDRKKLPRKEVDDVLGGGWDNVDQTKTQCPNYDTCGGESAYFFQLQIRSADEPMTTFYKCVNCGHRWKEN
B2: RNA polymerase III stalk subunit C17 (natural protein, S. cerevisiae)
chain: MKVLEERNAFLSDYEVLKFLTDLEKKHLWDQKSLAALKKSRSKGKQNRPYNHPELQGITRNVVNYLSINKNFINQEDEGEERESSGAKDAEKSGISKMSDESFAELMTKLNSFKLFKAEKLQIVNQLPANMVHLYSIVEECDARFDEKTIEEMLEIISGYA
B3: RNA polymerase III subunit C37 (natural protein, S. cerevisiae)
chain: MSIDNKLFVTEEDEEDRTQDRADVEDESNDIDMIADENGTNSAIANEQEEKSEEVKAEDDTGEEEEDDPVIEEFPLKISGEEESLHVFQYANRPRLVGRKPAEHPFISAARYKPKSHLWEIDIPLDEQAFYNKDKAESEWNGVNVQTLKGVGVENNGQYAAFVKDMQVYLVPIERVAQLKPFFKYIDDANVTRKQEDARRNPNPSSQRAQVVTMSVKSVNDPSQNRLTGSLLAHKVADEEANIELTWAEGTFEQFKDTIVKEAEDKTLVALEKQEDYIDNLV

Tests used:
Test in all cases: cryo-EM structure
[1] = target: T1, RNA polymerase III subunit C160
[2] = target: B3
[3] = target: T2, RNA polymerase III subunit C128
[4] = target: T3, RNA polymerase III stalk subunit C25
[5] = target: T4, RNA polymerase III subunit C53

binding result [1] | binding result [2] | binding result [3] | binding result [4] | binding result [5] | Binder
binds | binds | binds |  |  | B1
binds |  |  | binds |  | B2
 |  | binds |  | binds | B3

Reference: publication PMC4681132 (Nature, 2015)
